Assay results as given in paper PMC10933773, “Phosphorylation by ATR triggers FANCD2 chromatin loading and activates the Fanconi anemia pathway”.

Assays:
Details in all cases: protein: recombinant;recombinant; tags: FLAG-HA;His; copies: 1;1; label: radiolabelled; fork: 29 bp duplex (S3[1-29] with S4[22-50]), unpaired arms 21 nt (3' of S3) and 21 nt (5' of S4)
FANCD2-10D;FANCI = FANCD2-10D;FANCI (human?;human?, UniProt Q9BXW9;Q9NVI1 1-1451;1-1328, S64D;S178D;S319D;T596D;T608D;S705D;S1257D;S1401D;S1404D;S1418D|); assay: EMSA; stronger than WT and 10A; 25 mM Tris-HCl pH 7.5, 100 mM NaCl, 1 mM EDTA, 6% glycerol, 1 mM DTT, 1 nM DNA, room temperature 60-90 min; 4% PAGE 0.4x TBE at 4 C
Chain of FANCD2-10D;FANCI (Q9BXW9 whole entry S64D/S178D/S319D/T596D/T608D/S705D/S1257D/S1401D/S1404D/S1418D, chain 1 of 2): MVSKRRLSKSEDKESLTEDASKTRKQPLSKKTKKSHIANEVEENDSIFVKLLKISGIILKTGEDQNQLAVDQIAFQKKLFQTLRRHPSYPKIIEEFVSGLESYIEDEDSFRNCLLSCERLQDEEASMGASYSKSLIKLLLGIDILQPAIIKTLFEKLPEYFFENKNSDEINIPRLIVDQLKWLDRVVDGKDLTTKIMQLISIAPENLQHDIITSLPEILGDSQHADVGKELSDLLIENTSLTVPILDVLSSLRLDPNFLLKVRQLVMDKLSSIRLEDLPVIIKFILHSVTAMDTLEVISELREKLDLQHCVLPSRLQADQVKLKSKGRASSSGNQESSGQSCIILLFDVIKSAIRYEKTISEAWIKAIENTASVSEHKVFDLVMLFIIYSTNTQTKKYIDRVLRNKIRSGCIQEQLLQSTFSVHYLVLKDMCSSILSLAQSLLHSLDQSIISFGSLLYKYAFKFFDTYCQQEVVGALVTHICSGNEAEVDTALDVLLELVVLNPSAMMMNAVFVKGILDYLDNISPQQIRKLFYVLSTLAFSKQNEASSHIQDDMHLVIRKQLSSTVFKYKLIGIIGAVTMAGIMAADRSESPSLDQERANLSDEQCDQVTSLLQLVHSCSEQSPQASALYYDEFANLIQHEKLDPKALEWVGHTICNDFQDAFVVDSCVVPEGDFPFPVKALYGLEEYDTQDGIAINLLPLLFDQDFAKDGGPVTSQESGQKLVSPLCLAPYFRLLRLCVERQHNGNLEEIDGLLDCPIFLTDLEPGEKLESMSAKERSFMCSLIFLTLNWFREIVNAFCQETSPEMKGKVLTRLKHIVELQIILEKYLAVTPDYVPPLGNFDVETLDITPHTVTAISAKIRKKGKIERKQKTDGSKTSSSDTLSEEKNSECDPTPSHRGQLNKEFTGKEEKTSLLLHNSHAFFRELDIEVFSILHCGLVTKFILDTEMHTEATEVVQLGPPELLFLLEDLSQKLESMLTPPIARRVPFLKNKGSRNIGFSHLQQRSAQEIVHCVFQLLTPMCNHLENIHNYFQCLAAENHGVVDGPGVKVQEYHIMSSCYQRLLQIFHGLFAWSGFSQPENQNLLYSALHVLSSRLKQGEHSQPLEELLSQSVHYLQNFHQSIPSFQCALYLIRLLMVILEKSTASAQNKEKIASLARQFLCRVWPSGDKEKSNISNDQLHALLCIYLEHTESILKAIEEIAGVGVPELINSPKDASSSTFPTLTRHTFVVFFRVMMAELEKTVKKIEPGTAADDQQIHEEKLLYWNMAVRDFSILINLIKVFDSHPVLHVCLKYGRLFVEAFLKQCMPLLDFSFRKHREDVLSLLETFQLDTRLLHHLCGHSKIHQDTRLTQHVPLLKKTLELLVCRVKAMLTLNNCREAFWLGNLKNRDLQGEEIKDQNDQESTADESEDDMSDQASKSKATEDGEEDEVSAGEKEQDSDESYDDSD
Chain of FANCD2-10D;FANCI (Q9NVI1 whole entry, chain 2 of 2): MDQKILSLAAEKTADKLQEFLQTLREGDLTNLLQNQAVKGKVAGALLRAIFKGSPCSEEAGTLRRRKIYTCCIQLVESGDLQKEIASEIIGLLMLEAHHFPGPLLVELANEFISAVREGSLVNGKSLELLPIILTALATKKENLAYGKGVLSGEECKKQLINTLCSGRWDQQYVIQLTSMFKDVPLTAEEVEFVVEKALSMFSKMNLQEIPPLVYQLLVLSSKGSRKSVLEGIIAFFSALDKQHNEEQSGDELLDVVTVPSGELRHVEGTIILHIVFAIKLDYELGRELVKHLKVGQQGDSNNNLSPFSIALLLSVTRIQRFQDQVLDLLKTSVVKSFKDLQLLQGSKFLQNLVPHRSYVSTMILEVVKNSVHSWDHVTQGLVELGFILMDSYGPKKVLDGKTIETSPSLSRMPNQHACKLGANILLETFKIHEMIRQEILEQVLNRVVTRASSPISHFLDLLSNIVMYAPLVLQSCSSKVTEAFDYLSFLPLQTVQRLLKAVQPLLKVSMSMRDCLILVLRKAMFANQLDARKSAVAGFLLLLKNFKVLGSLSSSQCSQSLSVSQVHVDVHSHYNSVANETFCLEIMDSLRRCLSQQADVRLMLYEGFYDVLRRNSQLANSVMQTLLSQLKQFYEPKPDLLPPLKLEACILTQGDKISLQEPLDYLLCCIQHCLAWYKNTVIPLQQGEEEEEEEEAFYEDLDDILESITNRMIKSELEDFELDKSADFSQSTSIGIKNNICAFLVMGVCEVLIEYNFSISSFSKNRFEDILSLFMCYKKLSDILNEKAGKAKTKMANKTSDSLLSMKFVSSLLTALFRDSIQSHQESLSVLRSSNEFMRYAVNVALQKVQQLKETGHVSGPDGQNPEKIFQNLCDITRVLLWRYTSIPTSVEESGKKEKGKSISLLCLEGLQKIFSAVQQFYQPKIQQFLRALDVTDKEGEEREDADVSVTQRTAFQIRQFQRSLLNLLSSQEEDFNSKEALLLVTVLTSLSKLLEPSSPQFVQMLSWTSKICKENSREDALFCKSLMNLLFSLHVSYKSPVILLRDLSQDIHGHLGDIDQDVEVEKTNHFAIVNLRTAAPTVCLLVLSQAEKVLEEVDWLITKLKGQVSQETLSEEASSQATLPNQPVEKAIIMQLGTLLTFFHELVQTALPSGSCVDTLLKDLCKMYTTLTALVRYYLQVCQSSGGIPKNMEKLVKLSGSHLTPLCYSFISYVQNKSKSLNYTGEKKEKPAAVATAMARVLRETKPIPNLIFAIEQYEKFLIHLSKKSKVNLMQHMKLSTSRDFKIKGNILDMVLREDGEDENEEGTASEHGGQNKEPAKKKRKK

FANCD2-10A;FANCI = FANCD2-10A;FANCI (human?;human?, UniProt Q9BXW9;Q9NVI1 1-1451;1-1328, S64A;S178A;S319A;T596A;T608A;S705A;S1257A;S1401A;S1404A;S1418A|); assay: EMSA; 25 mM Tris-HCl pH 7.5, 100 mM NaCl, 1 mM EDTA, 6% glycerol, 1 mM DTT, 1 nM DNA, room temperature 60-90 min; 4% PAGE 0.4x TBE at 4 C
Chain of FANCD2-10A;FANCI (Q9BXW9 whole entry S64A/S178A/S319A/T596A/T608A/S705A/S1257A/S1401A/S1404A/S1418A, chain 1 of 2): as the sequence (Q9BXW9 whole entry S64D/S178D/S319D/T596D/T608D/S705D/S1257D/S1401D/S1404D/S1418D, chain 1 of 2) above, with D64A, D178A, D319A, D596A, D608A, D705A, D1257A, D1401A, D1404A, D1418A counted along it
Chain of FANCD2-10A;FANCI (Q9NVI1 whole entry, chain 2 of 2): as the sequence (Q9NVI1 whole entry, chain 2 of 2) above

FANCD2 WT;FANCI = FANCD2 WT;FANCI (human?;human?, UniProt Q9BXW9;Q9NVI1 1-1451;1-1328, |); assay: as above
Chain of FANCD2 WT;FANCI (Q9BXW9 whole entry, chain 1 of 2): as the sequence (Q9BXW9 whole entry S64D/S178D/S319D/T596D/T608D/S705D/S1257D/S1401D/S1404D/S1418D, chain 1 of 2) above, with D64S, D178S, D319S, D596T, D608T, D705S, D1257S, D1401S, D1404S, D1418S counted along it
Chain of FANCD2 WT;FANCI (Q9NVI1 whole entry, chain 2 of 2): as the sequence (Q9NVI1 whole entry, chain 2 of 2) above

Measured: binding result

B1: ICL14 Y-shaped DNA (stalled fork mimic) (dsDNA)
DNA 1: CATTGTGAATTCGCCTCTCTGTCTAGCCGAAGCTCGAAACGATCTTGTGC
DNA 2: GTCCATCAAAGTTCGACTGTGCGGCTAGACAGAGAGGCGAATTCACAATG
binds: all assays above
